Test results published in the supplement of paper PMC9170038.

System: MS2 coat protein
Test: apparent KD of MS2 coat protein; designed switch direction (-1 OFF switch, 1 ON switch): -1; higher = weaker reporter binding
Method in brief: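 For each design, the apparent KD is the median over clusters of curves fitted to normalised cluster fluorescence. Clusters held RNA switches with common flanks, transcribed on Illumina chips by stalled E. coli RNA polymerase. These were titrated with SNAP-549-labelled MS2 coat protein, doubling from 0.7 or 1.5 nM to 3 µM, without input, with 200 uM small-molecule ligand, or with an oligonucleotide input.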

[1] = Eterna round: R95, input ligand: microRNA oligo, concentration not stated
[2] = input ligand: microRNA oligo, concentration not stated
[3] = Eterna round: R95, input ligand: FMN 200 uM
[4] = Eterna round: R95, input ligand: none

Sequence	apparent KD of MS2 coat protein [1] [nM]	apparent KD of MS2 coat protein (input ligand: FMN 200 uM) [nM]	apparent KD of MS2 coat protein (input ligand: none) [nM]	apparent KD of MS2 coat protein [2] [nM]	apparent KD of MS2 coat protein [3] [nM]	apparent KD of MS2 coat protein [4] [nM]
AAAGAGCGAGGAUAUACAUGAGGAUCACCCAUGUAAAGAUGCAUGGUCUGAACGUCUGGUAGAAGGCGUAUGAA [Diatater] (puzzle: Exclusion 3)	98.7	–	–	–	–	–
AAAUAGCUUGAGGAUAUUGGAUAGGAUUUAGUGCGAGAAGGCAAGACAUGAGGAUCACCCAUGUUGUGUUGGGA [EX6 #13] (Eterna round: R97, puzzle: Exclusion 6)	–	48.4	36.4	–	–	–
GAUUAACAUGAGGAUCACCCAUGUGAGGAUAUUGACUUGCUCACUUUCCCAUUAGAGUCGAGAAGGCGCAUCUU [1986#18] (Eterna round: R97, puzzle: Exclusion 1)	–	25.2	28.6	–	–	–
GCCGGCUGAGGAUAUACAUGAGGAUCACCCAUGUGCUUCAGCCGGGAGACCGGCAUUGGUAGAAGGCAGCCGGC [Mod of lroppy 21 - Jieux - Exclusion 3] (Eterna round: R97, puzzle: Exclusion 3)	–	14.5	14.7	–	–	–
GCAGCAUAGUUUACUAACUGUUACAUGAGGAUCACCCAUGUUCAGGAUAUGGUCUGGAUUACAGGCCAGAAGGGAGCAAGCUGC [Eli exng3 - 027] (Eterna round: R96, puzzle: Exclusion NG 3)	–	13.3	13.8	10.7	–	–
AGUACUAACACGAAAGUGUUAGUACAAUAAGCUAGUGGAACAUGAGGAUCACCCAUGUCCUCAUUAGCUCGUCUUAA [Mat - Sensor v3 - Turn-off var 2 - D34] (puzzle: Sensor v3, turn-off variant 2)	29.2	–	–	–	14.2	15.5
GUCAUCGCAGGAUAUUAGAGUUUUUACAUGAGGAUCACCCAUGUUAAUUGGGUUAAUGUCUAAGAAGGGCGAUGAA [JR_EX5_Sub013] (Eterna round: R97, puzzle: Exclusion 5)	–	126	67.4	–	–	–
UAUUAGUGAGGAUAUGGUAAAGAUAAGAUGAUGAAAGAACUCCAGAAGGCACAUGAGGAUCACCCAUGUAGUAG [JL-ex4-2.09 Jieux mod] (puzzle: Exclusion 4)	19.5	–	–	–	–	–
GUAAAGUGAGGAUAUGGUAAAUUAAUUAUUAAUUAAUUAAUCCAGAAGGCACAUGAGGAUCACCCAUGUUAAUG [Mat - Exclusion 4 - D89] (puzzle: Exclusion 4)	28.6	–	–	–	50.9	34.5
AAGAACGUCGGAGGAUAUCCAGCCAAGCCCGCAGGAGAAGGCCGGCGGUGGGAUGUGCUUCACAUGAGGAUCACCCAUGUUAAU [Onriti] (Eterna round: R96, puzzle: Exclusion NG 1)	–	361	96.2	64.6	–	–
UAAUGCAAGCAAAGAUUCUACAUGAGGAUCACCCAUGUGCUCGUCUUAUAAAGUACUAUCACGAAAGUGAUAGUACA [Mat - Sensor v3 - turn-off var 1 - Eli Mod - D96] (puzzle: Sensor v3, turn-off variant 1)	75.7	–	–	–	25.7	27.1
UGGUCACAUGAGGAUCACCCAUGUCAGGAUAUCGUCACUGGAGCUGCGGCUCCAGUGACGAGAAGGGACAUAAU [E1/6-A3] (Eterna round: R97, puzzle: Exclusion 1)	–	162	253	–	–	–
CUGAGCAGACGGAGAUCCAACAUGAGGAUCACCCAUGUCUCAAAAGCUUUUUGCUUGUCUUAUCCUCCUCUGUUCAC [Esqutian] (puzzle: Sensor v3, turn-off variant 1)	390	–	–	–	14	12.3
AUUUGCACGCUGCGGUCCUACAUGAGGAUCACCCAUGUGGUCUGGUGGCGUGGGUCGCCGGACUUGGCUCGUCUUGA [salish99_S_TOV1_R5_032] (Eterna round: R97, puzzle: Sensor, turn-off variant 1)	–	17.5	17.9	–	–	–
